This is an account of results in patent US20200317768A1 (published 2020).

Common to all, as to assay: SPR (BIACORE), 25 C, antibody captured, FcgR as analyte; KD of SG1 divided by KD of variant;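 note: relative to parent M103205H795-SG1 carrying the SG1 human heavy chain constant region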
(Surface plasmon resonance follows binding to a sensor surface in real time, without labels.)

In test [1] the target is T1, cynomolgus monkey FcγRIIa1 extracellular domain, His-tagged (cynomolgus monkey).
T1 construct: also called cyno FcγRIIa1; FcgRIIa1; not shown: C-terminal His-tag
T1 chain: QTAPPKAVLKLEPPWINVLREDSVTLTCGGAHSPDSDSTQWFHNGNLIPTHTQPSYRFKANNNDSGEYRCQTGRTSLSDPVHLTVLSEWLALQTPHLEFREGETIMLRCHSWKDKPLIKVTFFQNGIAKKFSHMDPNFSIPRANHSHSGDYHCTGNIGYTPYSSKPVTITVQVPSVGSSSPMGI
As for the experimental part: (§1) The kinetic analysis of interactions between these antibodies and FcγR was carried out using BIACORE® T200 or BIACORE® 4000 (GE Healthcare). HBS-EP+ (GE Healthcare) was used as the running buffer, and the measurement temperature was set to 25° C. A chip produced by immobilizing Protein A. Protein A/G or mouse anti-human IgG kappa light chain (BD Biosciences) onto a Series S Sensor Chip CM4 or CM5 (GE Healthcare) by the amine-coupling method was used. […] After the measurement, the antibody captured on the chip was washed off by allowing reaction with 10 mM glycine-HCl, pH1.5 and 25 mM NaOH so that the chip was regenerated and used repeatedly. The sensorgrams obtained as measurement results were analyzed by the 1:1 Langmuir binding model using the BIACORE® Evaluation Software to calculate the binding rate constant ka (L/mol/s) and dissociation rate constant kd (l/s), and the dissociation constant KD (mol/L) was calculated from these values. […] Regarding such interactions, KD values were calculated using the following 1:1 binding model described in BIACORE® T100 Software Handbook BR1006-48 Edition AE.

In test [2] the target is T2, cynomolgus monkey FcγRIIa2 extracellular domain, His-tagged (cynomolgus monkey).
T2 construct: also called cyno FcγRIIa2; FcgRIIa2; not shown: C-terminal His-tag
T2 chain: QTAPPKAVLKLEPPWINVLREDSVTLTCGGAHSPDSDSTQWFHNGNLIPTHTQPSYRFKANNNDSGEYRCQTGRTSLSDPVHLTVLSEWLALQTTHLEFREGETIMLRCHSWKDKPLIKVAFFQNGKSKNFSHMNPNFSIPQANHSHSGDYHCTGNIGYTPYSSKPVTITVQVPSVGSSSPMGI
As for the experimental part: as §1

Test [3] deals with T3, cynomolgus monkey FcγRIIa3 extracellular domain, His-tagged (cynomolgus monkey).
T3 construct: also called cyno FcγRIIa3; FcgRIIa3; not shown: C-terminal His-tag
T3 chain: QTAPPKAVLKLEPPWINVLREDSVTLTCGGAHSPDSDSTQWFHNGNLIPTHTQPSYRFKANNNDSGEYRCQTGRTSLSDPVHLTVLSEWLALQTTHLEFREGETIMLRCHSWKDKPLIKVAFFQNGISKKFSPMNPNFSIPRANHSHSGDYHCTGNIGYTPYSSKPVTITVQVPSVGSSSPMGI
As for the experimental part: as §1

Test [4] addresses T4, cynomolgus monkey FcγRIIb extracellular domain, His-tagged (cynomolgus monkey).
T4 construct: also called cyno FcγRIIb; cynoFcγRIIb; not shown: C-terminal His-tag
T4 chain: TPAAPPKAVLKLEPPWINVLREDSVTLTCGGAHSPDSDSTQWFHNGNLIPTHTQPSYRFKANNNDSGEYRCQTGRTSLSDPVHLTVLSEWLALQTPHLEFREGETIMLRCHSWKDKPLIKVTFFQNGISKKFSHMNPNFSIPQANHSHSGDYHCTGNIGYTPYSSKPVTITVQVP
As for the experimental part: as §1

The target of test [5] is T5, cynomolgus monkey FcγRIIIaS extracellular domain, His-tagged (cynomolgus monkey, UniProt Q8SPW2 21-206 at identity 1.00)).
T5 construct: also called cyno FcγRIIIaS; FcgRIIIaS; not shown: C-terminal His-tag
T5 chain: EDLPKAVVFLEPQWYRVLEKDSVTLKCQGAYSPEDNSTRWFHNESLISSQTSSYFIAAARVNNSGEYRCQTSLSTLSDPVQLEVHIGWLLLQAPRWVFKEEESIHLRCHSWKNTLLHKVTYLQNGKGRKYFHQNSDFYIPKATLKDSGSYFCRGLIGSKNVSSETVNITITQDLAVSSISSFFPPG
As for the experimental part:
as §1

The target of test [6] is T6, human FcγRIIaH extracellular domain, His-tagged (human, UniProt P12318 34-217).
T6 construct: also called human FcγRIIa (type H); FcgRIIaH; not shown: C-terminal His-tag
T6 sequence: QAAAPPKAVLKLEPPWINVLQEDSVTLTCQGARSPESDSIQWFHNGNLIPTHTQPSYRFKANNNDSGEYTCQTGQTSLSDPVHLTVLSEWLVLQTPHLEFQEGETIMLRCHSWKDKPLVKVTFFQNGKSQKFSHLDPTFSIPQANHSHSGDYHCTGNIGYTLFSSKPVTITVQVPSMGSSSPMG
As for the experimental part: as §1

Test [7] concerns the target T7, human FcγRIIaR extracellular domain, His-tagged (human, UniProt P12318 34-217).
T7 construct: also called human FcγRIIa (type R); FcgRIIaR; not shown: C-terminal His-tag
T7 chain: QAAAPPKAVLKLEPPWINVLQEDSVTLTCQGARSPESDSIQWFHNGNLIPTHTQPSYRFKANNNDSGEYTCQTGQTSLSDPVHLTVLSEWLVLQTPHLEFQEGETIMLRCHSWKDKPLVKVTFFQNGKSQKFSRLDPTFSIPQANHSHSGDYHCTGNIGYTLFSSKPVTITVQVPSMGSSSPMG
The procedure: as §1

For test [8], the target named is T8, human FcγRIIb extracellular domain, His-tagged (human, UniProt P31994 43-217).
T8 construct: also called FcgRIIb (human); not shown: C-terminal His-tag
T8 sequence: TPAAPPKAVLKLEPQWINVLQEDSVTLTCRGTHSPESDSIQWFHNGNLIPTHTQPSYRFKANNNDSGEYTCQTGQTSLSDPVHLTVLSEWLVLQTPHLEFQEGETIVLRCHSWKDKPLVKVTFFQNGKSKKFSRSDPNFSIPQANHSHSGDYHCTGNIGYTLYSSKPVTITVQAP
As for the experimental part: as §1

In test [9] the target is T9, human FcγRIIIaV extracellular domain, His-tagged (human, UniProt P08637 17-208).
T9 construct: also called human FcγRIIIa (V158); FcgRIIIaV; not shown: C-terminal His-tag
The procedure: as §1

T9 sequence (P08637 17-208 F176V): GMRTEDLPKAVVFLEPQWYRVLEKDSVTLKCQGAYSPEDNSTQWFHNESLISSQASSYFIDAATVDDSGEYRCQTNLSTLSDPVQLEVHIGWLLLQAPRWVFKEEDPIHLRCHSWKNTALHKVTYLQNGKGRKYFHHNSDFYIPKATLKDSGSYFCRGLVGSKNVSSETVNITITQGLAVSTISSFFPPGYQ

B1: M103205H795-MY453 / M103202L889-SK1 (antibody, human IgG1, kappa)
heavy: QVTLKESGPVLVKPTETLTLTCTVSGIDLSHDDISWVRQAPGKGLEWVGIISYAGSTYYASWAKGRLTISKDTSKNQVVLTMTNMDPVDTATYYCARGVPAYSHGGDLWGQGTLVTVSSASTKGPSVFPLAPSSKSTSGGTAALGCLVKDYFPEPVTVSWNSGALTSGVHTFPAVLQSSGLYSLSSVVTVPSSSLGTQTYICNVNHKPSNTKVDKKVEPKSCDKTHTCPPCPARELLTGPSVFLFPPKPKDTLMISRTPEVTCVVVDVSDEDPEVKFNWYVDGVEVHNAKTKPREEQYNSTYRVVSVLTVLHQDWLNGKEYKCKVSNKALPKPIEKTISKAKGQPREPQVYTLPPSREEMTKNQVSLTCLVKGFYPSDIAVEWESNGQPENNYKTTPPVLDSDGSFFLYSKLTVDKSRWQQGNVFSCSVMHEALHNHYTQKSLSLSP
light: DIVMTQSPATLSLSPGERATLSCTSSQSVYHANWLSWFQQKPGQPPKLLIYWASTLAYGVPSRFSGSGSGTDFTLTISSLQPEDAATYYCAGGYGGGRYAFGQGTKVEIKRTVAAPSVFIFPPSDEQLKSGTASVVCLLNNFYPREAKVQWKVDNALQSGNSQESVTEQDSKDSTYSLSSTLTLSKADYEKHKVYACEVTHQGLSSPVTKSFNRGEC
notes: substitution positions are EU numbers
As for B1, the “KD fold (SG1 = 1)” value in [1] came out at 0.5 fold; in test [2], 0.5 fold; in test [3], 0.8 fold; in [4], 0.3 fold; in test [5] it was 0.1 fold; in test [6], 0.9 fold. Also, the “KD fold (SG1 = 1)” value in test [7] was found to be 0.7 fold; in [8], 0.7 fold; in test [9], 0.1 fold.

B2: M103205H795-MY454 / M103202L889-SK1 (antibody, human IgG1, kappa)
heavy: QVTLKESGPVLVKPTETLTLTCTVSGIDLSHDDISWVRQAPGKGLEWVGIISYAGSTYYASWAKGRLTISKDTSKNQVVLTMTNMDPVDTATYYCARGVPAYSHGGDLWGQGTLVTVSSASTKGPSVFPLAPSSKSTSGGTAALGCLVKDYFPEPVTVSWNSGALTSGVHTFPAVLQSSGLYSLSSVVTVPSSSLGTQTYICNVNHKPSNTKVDKKVEPKSCDKTHTCPPCPASELLTGPSVFLFPPKPKDTLMISRTPEVTCVVVDVSDEDPEVKFNWYVDGVEVHNAKTKPREEQYNSTYRVVSVLTVLHQDWLNGKEYKCKVSNKALPKPIEKTISKAKGQPREPQVYTLPPSREEMTKNQVSLTCLVKGFYPSDIAVEWESNGQPENNYKTTPPVLDSDGSFFLYSKLTVDKSRWQQGNVFSCSVMHEALHNHYTQKSLSLSP
light: DIVMTQSPATLSLSPGERATLSCTSSQSVYHANWLSWFQQKPGQPPKLLIYWASTLAYGVPSRFSGSGSGTDFTLTISSLQPEDAATYYCAGGYGGGRYAFGQGTKVEIKRTVAAPSVFIFPPSDEQLKSGTASVVCLLNNFYPREAKVQWKVDNALQSGNSQESVTEQDSKDSTYSLSSTLTLSKADYEKHKVYACEVTHQGLSSPVTKSFNRGEC
notes: as for B1
As for B2, the “KD fold (SG1 = 1)” value amounted to 0.8 fold in test [1]; 1.6 fold in test [2]; 1.2 fold in test [3]; 1.3 fold in [4]; 0.1 fold in test [5]; 1.7 fold in test [6]. Moreover, the “KD fold (SG1 = 1)” value in test [7] was 1.4 fold; in test [8] it was 1.5 fold; in test [9], 0.1 fold.
